Biological target: T1, TwinStrep-BICD2 WT (mouse), Q921C5
T1 chain: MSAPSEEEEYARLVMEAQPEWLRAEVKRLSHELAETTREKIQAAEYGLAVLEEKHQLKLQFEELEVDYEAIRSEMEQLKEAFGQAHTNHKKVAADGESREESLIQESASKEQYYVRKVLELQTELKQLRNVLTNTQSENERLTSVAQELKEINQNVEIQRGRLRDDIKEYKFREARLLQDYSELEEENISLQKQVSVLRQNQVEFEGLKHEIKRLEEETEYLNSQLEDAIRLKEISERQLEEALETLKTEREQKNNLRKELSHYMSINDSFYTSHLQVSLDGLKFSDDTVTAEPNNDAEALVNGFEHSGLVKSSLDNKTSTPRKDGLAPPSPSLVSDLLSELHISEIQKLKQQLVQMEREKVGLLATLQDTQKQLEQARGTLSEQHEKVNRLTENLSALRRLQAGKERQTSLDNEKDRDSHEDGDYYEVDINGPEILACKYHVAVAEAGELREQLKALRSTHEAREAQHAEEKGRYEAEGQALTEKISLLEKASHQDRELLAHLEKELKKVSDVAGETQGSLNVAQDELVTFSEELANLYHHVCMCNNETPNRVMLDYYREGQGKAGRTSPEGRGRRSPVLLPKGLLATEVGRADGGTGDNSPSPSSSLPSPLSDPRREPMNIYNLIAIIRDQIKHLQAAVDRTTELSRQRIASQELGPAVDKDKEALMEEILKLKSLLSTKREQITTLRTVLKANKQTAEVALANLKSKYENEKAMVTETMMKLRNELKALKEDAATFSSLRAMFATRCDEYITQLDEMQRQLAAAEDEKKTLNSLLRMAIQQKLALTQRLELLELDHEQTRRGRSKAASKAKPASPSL
Assay: SEC-MALS; purified TwinStrep-BICD2 WT and S102D; predicted MW of ~190 kDa
Conditions: remark: other sources report otherwise

B1: TwinStrep-BICD2 WT, Q921C5 1-820 (natural protein)
chain: MSAPSEEEEYARLVMEAQPEWLRAEVKRLSHELAETTREKIQAAEYGLAVLEEKHQLKLQFEELEVDYEAIRSEMEQLKEAFGQAHTNHKKVAADGESREESLIQESASKEQYYVRKVLELQTELKQLRNVLTNTQSENERLTSVAQELKEINQNVEIQRGRLRDDIKEYKFREARLLQDYSELEEENISLQKQVSVLRQNQVEFEGLKHEIKRLEEETEYLNSQLEDAIRLKEISERQLEEALETLKTEREQKNNLRKELSHYMSINDSFYTSHLQVSLDGLKFSDDTVTAEPNNDAEALVNGFEHSGLVKSSLDNKTSTPRKDGLAPPSPSLVSDLLSELHISEIQKLKQQLVQMEREKVGLLATLQDTQKQLEQARGTLSEQHEKVNRLTENLSALRRLQAGKERQTSLDNEKDRDSHEDGDYYEVDINGPEILACKYHVAVAEAGELREQLKALRSTHEAREAQHAEEKGRYEAEGQALTEKISLLEKASHQDRELLAHLEKELKKVSDVAGETQGSLNVAQDELVTFSEELANLYHHVCMCNNETPNRVMLDYYREGQGKAGRTSPEGRGRRSPVLLPKGLLATEVGRADGGTGDNSPSPSSSLPSPLSDPRREPMNIYNLIAIIRDQIKHLQAAVDRTTELSRQRIASQELGPAVDKDKEALMEEILKLKSLLSTKREQITTLRTVLKANKQTAEVALANLKSKYENEKAMVTETMMKLRNELKALKEDAATFSSLRAMFATRCDEYITQLDEMQRQLAAAEDEKKTLNSLLRMAIQQKLALTQRLELLELDHEQTRRGRSKAASKAKPASPSL
stoichiometry N: 2
